Reference: article PMC2140025

Biological target: F-actin (rat (endogenous in MTLn3)) (UniProt P60711)
Assay: FLIP

Substance: GFP-cofilin (from UniProt P45592 1-166) (natural protein)
- tau of the slow FLIP component (assigned to F-actin-bound cofilin): 26 s
